{"source": "paper PMC9763339", "biological_target": "RBM5-Myc (UniProt P52756)", "sequence (P52756 whole entry)": "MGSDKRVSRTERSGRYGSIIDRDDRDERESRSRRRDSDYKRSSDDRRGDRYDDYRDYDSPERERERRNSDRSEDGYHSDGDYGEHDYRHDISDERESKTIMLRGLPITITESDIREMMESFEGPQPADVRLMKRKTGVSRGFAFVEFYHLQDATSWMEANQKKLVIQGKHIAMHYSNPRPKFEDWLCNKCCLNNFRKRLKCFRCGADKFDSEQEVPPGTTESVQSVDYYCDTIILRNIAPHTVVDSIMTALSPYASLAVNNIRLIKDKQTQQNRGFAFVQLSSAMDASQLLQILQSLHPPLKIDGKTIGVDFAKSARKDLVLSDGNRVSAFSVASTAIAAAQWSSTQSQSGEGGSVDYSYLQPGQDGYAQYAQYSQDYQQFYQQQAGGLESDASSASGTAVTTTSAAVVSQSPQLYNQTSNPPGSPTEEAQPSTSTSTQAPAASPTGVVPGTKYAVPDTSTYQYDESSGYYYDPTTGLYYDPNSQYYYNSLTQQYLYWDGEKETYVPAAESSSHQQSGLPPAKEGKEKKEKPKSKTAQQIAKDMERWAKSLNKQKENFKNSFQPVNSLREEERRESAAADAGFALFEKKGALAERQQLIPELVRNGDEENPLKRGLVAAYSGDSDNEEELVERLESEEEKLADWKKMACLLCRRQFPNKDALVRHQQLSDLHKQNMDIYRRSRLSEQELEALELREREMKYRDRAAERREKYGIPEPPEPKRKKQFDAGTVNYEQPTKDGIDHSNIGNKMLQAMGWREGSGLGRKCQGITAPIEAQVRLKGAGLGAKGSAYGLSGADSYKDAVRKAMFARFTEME", "data": [{"substance": "InlP-HA (in HeLa cells) (natural protein)", "values": [{"measurement": "percentage of HeLa cells with aberrantly shaped nuclei (RBM5-induced cell death) when InlP is co-expressed with RBM5", "result": 13, "unit": "%"}]}]}
